Data as given in patent US20230036060A1, “DUAL-CONTROLLED DRUG AND PHOTOACTIVATABLE SYSTEM FOR SPATIOTEMPORAL CONTROL OF CELL THERAPY” (THE REGENTS OF THE UNIVERSITY OF CALIFORNIA, priority 2019, published 2023).

B1: NLS-pMag-CreC: nucleus-localized C-terminal split-Cre protein half, SEQ ID NO: 1 (protein)
chain: PKKKRKVGGHTLYAPGGYDIMGYLRQIRNRPNPQVELGPVDTSCALILCDLKQKDTPIVYASEAFLYMTGYSNAEVLGRNCRFLQSPDGMVKPKSTRKYVDSNTINTMRKAIDRNAEVQVEVVNFKKNGQRFVNFLTMIPVRDETGEYRYSMGFQCETEGTNRKWFPAEPEDVRDYLLYLQARGLAVKTIQQHLGQLNMLHRRSGLPRPSDSNAVSLVMRRIRKENVDAGERAKQALAFERTDFDQVRSLMENSDRCQDIRNLAFLGIAYNTLLRIAEIARIRVKDISRTDGGRMLIHIGRTKTLVSTAGVEKALSLGVTKLVERWISVSGVADDPNNYLFCRVRKNGVAAPSATSQLSTRALEGIFEATHRLIYGAKDDSGQRYLAWSGHSARVGAARDMARAGVSIPEIMQAGGWTNVNIVMNYIRNLDSETGAMVRLLEDGD
modifications: Synthetic exemplary nucleic acid sequence for NLS-pMag-CreC
B2: myc-α-CD38 Receptor: c-myc-tagged α-CD38 anchoring receptor expressed in Jurkat T cells, SEQ ID NO: 8 (protein)
chain: MEFGLSWLFLVAILKGVQCSEQKLISEEDLDIQLTQSSSSFSVSLGDRVTITCKASEDIYNRLAWYQQKPGNAPRLLISGATSLETGVPSRFSGSGSGKDYTLSITSLQTEDVATYYCQQYWSTPTFGGGTKLEIKRADAAPTVSIFPPSGGGGSGGGGSGGGGSGGGGSQVQLKQSGPSLVQPSQRLSITCTVSGFSLISYGVHWVRQSPGKGLEWLGVIWRGGSTDYNAAFMSRLSITKDNSKSQVFFKMNSLQADDTAIYFCAKTLITTGYAMDYWGQGTSVTVSSAAAIEVMYPPPYLDNEKSNGTIIHVKGKHLCPSPLFPGPSKPFWVLVVVGGVLACYSLLVTVAFIIFWVRSKRS
modifications: Synthetic exemplary nucleic acid sequence for exemplary myc-alpha-CD38-Receptor

Experiments:
[1] = system: EGFP Reporter HEK293T cells; assay: Cre-loxP recombination in EGFP Reporter HEK293T cells, % EGFP+ by flow cytometry normalized to Cre groups; assay type: cell-based; conditions: Dark, Ambient, Light (5 W/m^2, 7.5 s per min, 24 h); n=5
From the text: FIG. 2A is a schematic representation of the EGFP Reporter genetic construct before and after Cre-loxP recombination; the hEF1α promoter drives mCherry expression.
FIG. 3E graphically illustrates the number of recombined cells after recombination in TamPA-Cre-nH1^+ EGFP Reporter HEK293T cells subjected (Light) or not (Ambient, Dark) to Protocol B (n=3) of FIG. 3C; reporter is untransfected EGFP Reporter HEK293T cell line (n=3), blue light stimulation started and flow cytometry measurements taken 24 h and 72 h post-transfection, respectively; percentage of recombined HEK293T cells (normalized to maximal recombination)=100%*(% of EGFP^+ cells)/(mean % of EGFP^+ cells in corresponding Cre groups). […]
To compare the two photoactivatable split-Cre systems, EGFP Reporter HEK293T cells were or were not (Reporter) transiently transfected with either PA-Cre-C, PA-Cre-M, or Cre constructs (Fig. S1A-D). […] The percentage of EGFP^+ recombined cells in each cell group was determined by flow cytometry 24 h later. […]

[2] = system: CD38+ Toledo Target cells; assay: Activation of myc-α-CD38 Receptor Jurkat T cells upon binding to CD38+ Toledo Target cells; assay type: cell-based; conditions: Jurkat T cells stably expressing the receptor
From the text: FIG. 12D graphically illustrates representative histograms from flow cytometry showing that α-CD19-CAR-EGFP^+ Jurkat T cells both (I) bind to and (II) are activated by CD19^+ Toledo Target cells, while myc-α-CD38-Receptor^+ Jurkat T cells (III) bind to but (IV) are not activated by CD38^+ Toledo Target cells;
The TamPA-Cre system was next applied to induce CAR expression in the physiologically relevant Jurkat T cell line. […] Likewise, Jurkat T cells stably expressing myc-α-CD38 Receptor were not activated upon binding to CD38^+ Toledo Target cells, as expected (Fig. S6D).

Molecule | Cre-loxP recombination by one split-Cre half alone versus Reporter [1] | T cell activation upon binding to Target cells [2]
B1 | no significant difference | –
B2 | – | not activated
